# Test results taken from patent US5470740.
# System: NsiI restriction endonuclease (Neisseria sicca BRL 397)
# Assay: cleavage_in_vitro
# Settings: crude sonicated extract, REact 3 buffer, 37 C, 1 h; each of pUC123 and pUC140
substance,measurement,value
lambda DNA,activity (units/g cells),> 26000
